The values below come from publication PMC3517414, “Complex Interplay between the Lipin 1 and the Hepatocyte Nuclear Factor 4 α (HNF4α) Pathways to Regulate Liver Lipid Metabolism” (PLoS ONE, 2012).

The target of this experiment is T1, hepatocyte nuclear factor 4α (HNF4α) (human (endogenous in HepG2), UniProt P41235 1-474).
T1 sequence (looked up): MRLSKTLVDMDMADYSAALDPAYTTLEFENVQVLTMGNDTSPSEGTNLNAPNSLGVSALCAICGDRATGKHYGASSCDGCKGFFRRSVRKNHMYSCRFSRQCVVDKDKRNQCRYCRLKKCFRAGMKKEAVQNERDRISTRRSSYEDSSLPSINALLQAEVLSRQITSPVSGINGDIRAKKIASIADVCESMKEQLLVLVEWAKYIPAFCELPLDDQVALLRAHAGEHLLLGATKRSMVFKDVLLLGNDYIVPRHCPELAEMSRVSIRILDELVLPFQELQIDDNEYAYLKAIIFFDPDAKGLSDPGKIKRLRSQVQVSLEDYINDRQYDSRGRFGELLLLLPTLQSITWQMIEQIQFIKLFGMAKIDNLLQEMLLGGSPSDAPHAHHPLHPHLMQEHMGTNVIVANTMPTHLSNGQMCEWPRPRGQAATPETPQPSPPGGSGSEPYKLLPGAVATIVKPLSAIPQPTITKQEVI
Put plainly: cell-based or functional assay.

B1: lipin 1β (924 amino acid form of mouse lipin 1), HA-tagged (natural protein, UniProt Q91ZP3 1-924, looked up)
chain: MNYVGQLAGQVFVTVKELYKGLNPATLSGCIDIIVIRQPNGSLQCSPFHVRFGKMGVLRSREKVVDIEINGESVDLHMKLGDNGEAFFVQETDNDQEIIPMYLATSPILSEGAARMESQLKRNSVDRIRCLDPTTAAQGLPPSDTPSTGSLGKKRRKRRRKAQLDNLKRDDNVNSSEDEDMFPIEMSSDEDTAPMDGSRTLPNDVPPFQDDIPKENFPSISTHPQSASYPSSDREWSPSPSSLVDCQRTPPHLAEGVLSSSCPLQSCHFHASESPSGSRPSTPKSDSELVSKSADRLTPKNNLEMLWLWGELPQAAKSSSPHKMKESSPLGSRKTPDKMNFQAIHSESSDTFSDQSPTMARGLLIHQSKAQTEMQFVNEEDLESLGAAAPPSPVAEELKAPYPNTAQSSSKTDSPSRKKDKRSRHLGADGVYLDDLTDMDPEVAALYFPKNGDPGGLPKQASDNGARSANQSPQSVGGSGIDSGVESTSDSLRDLPSIAISLCGGLSDHREITKDAFLEQAVSYQQFADNPAIIDDPNLVVKVGNKYYNWTTAAPLLLAMQAFQKPLPKATVESIMRDKMPKKGGRWWFSWRGRNATIKEESKPEQCLTGKGHNTGEQPAQLGLATRIKHESSSSDEEHAAAKPSGSSHLSLLSNVSYKKTLRLTSEQLKSLKLKNGPNDVVFSVTTQYQGTCRCEGTIYLWNWDDKVIISDIDGTITRSDTLGHILPTLGKDWTHQGIAKLYHKVSQNGYKFLYCSARAIGMADMTRGYLHWVNERGTVLPQGPLLLSPSSLFSALHREVIEKKPEKFKVQCLTDIKNLFFPNTEPFYAAFGNRPADVYSYKQVGVSLNRIFTVNPKGELVQEHAKTNISSYVRLCEVVDHVFPLLKRSHSCDFPCSDTFSNFTFWREPLPPFENQDMHSASA
Consider B1, for which the “activity of a Gal4-HNF4α fusion on the UAS-TKLuc luciferase reporter in HepG2 cells with lipin 1 overexpression” value is over 3 fold.
